Laboratory results from IntAct's records for PubMed 22072710.

B1: Bone marrow stromal antigen 2 (Homo sapiens), Q10589 (parent)
chain: MASTSYDYCRVPMEDGDKRCKLLLGIGILVLLIIVILGVPLIIFTIKANSEACRDGLRAVMECRNVTHLLQQELTEAQKGFQDVEAQAATCNHTVMALMASLDAEKAQGQKKVEELEGEITTLNHKLQDASAEVERLRRENQVLSVRIADKKYYPSSQDSSSAAAPQLLIVLLGLSALLQ
partner: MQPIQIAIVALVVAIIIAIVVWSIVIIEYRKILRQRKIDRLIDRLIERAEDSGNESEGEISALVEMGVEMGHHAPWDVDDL
B2: Protein Vpu (Human immunodeficiency virus type 1 group M subtype B (isolate BH10) (HIV-1)), P69699 (parent)
chain: B1 partner

Variants of: B1
Conditions: with vpu_hv1b1 vpu, P69699

Row | Variant | effect of a mutation on the interaction
1 | L24I;T45I | disrupting interaction strength
2 | I26A | decreasing interaction
3 | L37A | disrupting interaction
4 | I34A | disrupting interaction
5 | L41A | disrupting interaction

Variants of: B2
Conditions: with bst2_human BST2, Q10589

Row | Variant | effect of a mutation on the interaction
6 | A10F;A14F;A18F | decreasing interaction
7 | A14F | decreasing interaction
8 | W22A | decreasing interaction

Variants of: B2
Conditions: with bst2_human BST2, Q10589
Remark: another data set of the same source

Row | Variant | effect of a mutation on the interaction
9 | A10F;A14F;A18F | disrupting interaction
